Data reported in patent publication US20140080757A1 (ZEALAND PHARMA A S, published 2014).
Read-outs that look alike come from different tables or passages of the source. Numbered stars: 1 amine (or outer) side, 2 acyl side, 3 side chain; on linkers, the order of the positions; unused ones are H or OH. Square brackets hold non-standard residues; d marks the D form. Side chains are listed from the residue outwards. * marks the point of attachment. γGlu = O=C(O)[C@H](CCC(=O)[*:2])N[*:1]; Palmitoyl = CCCCCCCCCCCCCCCC(=O)*; Aib = CC(C)(N)C(=O)O

T1: endogenous GLP-1 receptor of a murine insulinoma cell line (murine, UniProt O35659 22-463)
T1 sequence (looked up): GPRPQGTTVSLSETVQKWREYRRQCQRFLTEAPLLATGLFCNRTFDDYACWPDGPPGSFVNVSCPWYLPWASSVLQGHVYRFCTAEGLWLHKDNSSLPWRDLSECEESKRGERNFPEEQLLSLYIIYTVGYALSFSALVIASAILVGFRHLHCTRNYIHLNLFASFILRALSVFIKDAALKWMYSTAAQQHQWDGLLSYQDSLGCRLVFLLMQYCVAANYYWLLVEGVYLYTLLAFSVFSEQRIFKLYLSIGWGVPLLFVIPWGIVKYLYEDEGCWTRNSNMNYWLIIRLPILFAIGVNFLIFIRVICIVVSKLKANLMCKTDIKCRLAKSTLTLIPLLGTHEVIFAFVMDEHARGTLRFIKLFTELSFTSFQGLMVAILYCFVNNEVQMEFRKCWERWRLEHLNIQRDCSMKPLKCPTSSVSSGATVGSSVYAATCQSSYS


Assays:
Assay in all cases: cell-based or functional assay
[1] = biological target: T2, human glucagon-like peptide 1 receptor (GLP-1R) (human, UniProt P43220 24-463)
[2] = biological target: T3, human glucagon receptor (Glucagon-R) (human, UniProt P47871 26-477)
[3] = biological target: T1, endogenous GLP-1 receptor of a murine …
[4] = biological target: endogenous glucagon receptor of primary rat hepatocytes (rat, UniProt P30082 27-485)
[5] = biological target: T2, human glucagon-like peptide 1 receptor …; remark: listed apart in the source
[6] = biological target: T3, human glucagon receptor (Glucagon-R); remark: listed apart in the source

T3 sequence (P47871 26-477): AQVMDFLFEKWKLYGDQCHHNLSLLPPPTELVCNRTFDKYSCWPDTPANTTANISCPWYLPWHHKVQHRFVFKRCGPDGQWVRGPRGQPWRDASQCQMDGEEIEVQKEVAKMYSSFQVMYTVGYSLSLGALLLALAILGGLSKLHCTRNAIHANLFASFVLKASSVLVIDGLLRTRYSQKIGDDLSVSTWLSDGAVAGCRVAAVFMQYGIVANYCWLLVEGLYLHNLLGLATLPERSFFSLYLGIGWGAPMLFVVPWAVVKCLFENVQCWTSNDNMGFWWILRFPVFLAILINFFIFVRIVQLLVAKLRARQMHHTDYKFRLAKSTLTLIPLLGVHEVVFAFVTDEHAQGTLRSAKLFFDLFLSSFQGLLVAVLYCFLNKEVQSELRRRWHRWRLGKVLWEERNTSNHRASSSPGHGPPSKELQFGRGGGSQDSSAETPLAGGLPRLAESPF
Sequence of endogenous glucagon receptor of primary rat hepatocytes (P30082 27-485): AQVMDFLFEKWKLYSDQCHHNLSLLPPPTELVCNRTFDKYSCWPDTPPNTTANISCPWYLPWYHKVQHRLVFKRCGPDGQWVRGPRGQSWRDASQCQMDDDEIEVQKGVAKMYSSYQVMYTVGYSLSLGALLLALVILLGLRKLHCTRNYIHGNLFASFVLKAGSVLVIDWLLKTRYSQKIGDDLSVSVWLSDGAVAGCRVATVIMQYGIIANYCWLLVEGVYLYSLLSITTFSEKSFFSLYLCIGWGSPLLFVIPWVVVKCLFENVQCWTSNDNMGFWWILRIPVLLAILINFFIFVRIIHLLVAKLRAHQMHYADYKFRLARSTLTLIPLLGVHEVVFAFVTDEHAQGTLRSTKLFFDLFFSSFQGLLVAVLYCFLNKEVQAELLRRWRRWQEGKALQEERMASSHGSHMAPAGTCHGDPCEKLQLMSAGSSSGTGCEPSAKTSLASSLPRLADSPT

Row | Binder | EC50 hGLP-1R CHO-K1 [nM] (cAMP) [1] | Ratio GLP-1/Glucagon (EC50 hGLP-1R / EC50 hGCGR) [1] [ratio] | EC50 hGCGR CHO-K1 [nM] (cAMP) [2] | EC50 GLP-1R (murine insulinoma cells) [nM] (cAMP) [3] | EC50 GLP-1R Rat hepat. [nM] (inhibition of glycogen synthesis) [4] | EC50 hGLP-1R CHO-K1 [nM] (cAMP) [5] | Ratio GLP-1/Glucagon (EC50 hGLP-1R / EC50 hGCGR) [5] [ratio] | EC50 hGCGR CHO-K1 [nM] (cAMP) [6]
1 | H-H[Aib]QGTFTSDYSKYLDEK([γGlu-Palmitoyl])RAKDFIEWLLSA-OH (SMILES CCCCCCCCCCCCCCCC(=O)N[C@@H](CCC(=O)NCCCC[C@H](NC(=O)[C@H](CCC(=O)O)NC(=O)[C@H](CC(=O)O)NC(=O)[C@H](CC(C)C)NC(=O)[C@H](Cc1ccc(O)cc1)NC(=O)[C@H](CCCCN)NC(=O)[C@H](CO)NC(=O)[C@H](Cc1ccc(O)cc1)NC(=O)[C@H](CC(=O)O)NC(=O)[C@H](CO)NC(=O)[C@@H](NC(=O)[C@H](Cc1ccccc1)NC(=O)[C@@H](NC(=O)CNC(=O)[C@H](CCC(N)=O)NC(=O)C(C)(C)NC(=O)[C@@H](N)Cc1c[nH]cn1)[C@@H](C)O)[C@@H](C)O)C(=O)N[C@@H](CCCNC(=N)N)C(=O)N[C@@H](C)C(=O)N[C@@H](CCCCN)C(=O)N[C@@H](CC(=O)O)C(=O)N[C@@H](Cc1ccccc1)C(=O)N[C@H](C(=O)N[C@@H](CCC(=O)O)C(=O)N[C@@H](Cc1c[nH]c2ccccc12)C(=O)N[C@@H](CC(C)C)C(=O)N[C@@H](CC(C)C)C(=O)N[C@@H](CO)C(=O)N[C@@H](C)C(=O)O)[C@@H](C)CC)C(=O)O) [Compound 14] | 0.53 | 0.98 | 0.54 | 0.72 | 0.1 | – | – | –
2 | H-HSQGTFTSDYSRYLDSK([γGlu-Palmitoyl])AAHDFVEWLLSA-NH2 (SMILES CCCCCCCCCCCCCCCC(=O)N[C@@H](CCC(=O)NCCCC[C@H](NC(=O)[C@H](CO)NC(=O)[C@H](CC(=O)O)NC(=O)[C@H](CC(C)C)NC(=O)[C@H](Cc1ccc(O)cc1)NC(=O)[C@H](CCCNC(=N)N)NC(=O)[C@H](CO)NC(=O)[C@H](Cc1ccc(O)cc1)NC(=O)[C@H](CC(=O)O)NC(=O)[C@H](CO)NC(=O)[C@@H](NC(=O)[C@H](Cc1ccccc1)NC(=O)[C@@H](NC(=O)CNC(=O)[C@H](CCC(N)=O)NC(=O)[C@H](CO)NC(=O)[C@@H](N)Cc1c[nH]cn1)[C@@H](C)O)[C@@H](C)O)C(=O)N[C@@H](C)C(=O)N[C@@H](C)C(=O)N[C@@H](Cc1c[nH]cn1)C(=O)N[C@@H](CC(=O)O)C(=O)N[C@@H](Cc1ccccc1)C(=O)N[C@H](C(=O)N[C@@H](CCC(=O)O)C(=O)N[C@@H](Cc1c[nH]c2ccccc12)C(=O)N[C@@H](CC(C)C)C(=O)N[C@@H](CC(C)C)C(=O)N[C@@H](CO)C(=O)N[C@@H](C)C(N)=O)C(C)C)C(=O)O) [Compound 12] | 0.37 | 0.86 | 0.43 | 1.62 | 0.24 | – | – | –
3 | H-HSHGTFTSDYSKYLEEK([γGlu-Palmitoyl])AAHEFIEWLESA-OH (SMILES CCCCCCCCCCCCCCCC(=O)N[C@@H](CCC(=O)NCCCC[C@H](NC(=O)[C@H](CCC(=O)O)NC(=O)[C@H](CCC(=O)O)NC(=O)[C@H](CC(C)C)NC(=O)[C@H](Cc1ccc(O)cc1)NC(=O)[C@H](CCCCN)NC(=O)[C@H](CO)NC(=O)[C@H](Cc1ccc(O)cc1)NC(=O)[C@H](CC(=O)O)NC(=O)[C@H](CO)NC(=O)[C@@H](NC(=O)[C@H](Cc1ccccc1)NC(=O)[C@@H](NC(=O)CNC(=O)[C@H](Cc1c[nH]cn1)NC(=O)[C@H](CO)NC(=O)[C@@H](N)Cc1c[nH]cn1)[C@@H](C)O)[C@@H](C)O)C(=O)N[C@@H](C)C(=O)N[C@@H](C)C(=O)N[C@@H](Cc1c[nH]cn1)C(=O)N[C@@H](CCC(=O)O)C(=O)N[C@@H](Cc1ccccc1)C(=O)N[C@H](C(=O)N[C@@H](CCC(=O)O)C(=O)N[C@@H](Cc1c[nH]c2ccccc12)C(=O)N[C@@H](CC(C)C)C(=O)N[C@@H](CCC(=O)O)C(=O)N[C@@H](CO)C(=O)N[C@@H](C)C(=O)O)[C@@H](C)CC)C(=O)O) [Compound 18] | – | – | – | 0.99 | 0.18 | 0.87 | 6.2 | 0.14
4 | HXQGTFTSDYSKYLDSXAAHDFVEWLLSA (Aib at position 2; Lys 17 K(Hexadecanoyl-isoGlu); C-terminal -OH) [Compound 13] | 0.51 | 0.52 | 0.98 | 1.06 | 0.67 | – | – | –
5 | H-H[Aib]QGTFTSDYSKYLDSK([γGlu-Palmitoyl])AAEDFVEWLESA-NH2 (SMILES CCCCCCCCCCCCCCCC(=O)N[C@@H](CCC(=O)NCCCC[C@H](NC(=O)[C@H](CO)NC(=O)[C@H](CC(=O)O)NC(=O)[C@H](CC(C)C)NC(=O)[C@H](Cc1ccc(O)cc1)NC(=O)[C@H](CCCCN)NC(=O)[C@H](CO)NC(=O)[C@H](Cc1ccc(O)cc1)NC(=O)[C@H](CC(=O)O)NC(=O)[C@H](CO)NC(=O)[C@@H](NC(=O)[C@H](Cc1ccccc1)NC(=O)[C@@H](NC(=O)CNC(=O)[C@H](CCC(N)=O)NC(=O)C(C)(C)NC(=O)[C@@H](N)Cc1c[nH]cn1)[C@@H](C)O)[C@@H](C)O)C(=O)N[C@@H](C)C(=O)N[C@@H](C)C(=O)N[C@@H](CCC(=O)O)C(=O)N[C@@H](CC(=O)O)C(=O)N[C@@H](Cc1ccccc1)C(=O)N[C@H](C(=O)N[C@@H](CCC(=O)O)C(=O)N[C@@H](Cc1c[nH]c2ccccc12)C(=O)N[C@@H](CC(C)C)C(=O)N[C@@H](CCC(=O)O)C(=O)N[C@@H](CO)C(=O)N[C@@H](C)C(N)=O)C(C)C)C(=O)O) [Compound 16] | 0.2 | 0.13 | 1.58 | 0.33 | 1.85 | – | – | –
6 | HXQGTFTSDYSKYLDEXAAKDFIEWLESA (D-Ser at position 2; Lys 17 K(Hexadecanoyl-isoGlu); C-terminal amide (-NH2)) [Compound 25] | – | – | – | 0.41 | 0.15 | 0.31 | 1.94 | 0.16
7 | HXQGTFTSDYSKYLDEXAAKDFIEWLESA (Aib at position 2; Lys 17 K(Hexadecanoyl-isoGlu); C-terminal amide (-NH2)) [Compound 15] | 0.19 | 0.31 | 0.61 | 0.3 | 0.17 | – | – | –
8 | H-H[Aib]HGTFTSDYSKYLESK([γGlu-Palmitoyl])AAEEFIEWLESA-OH (SMILES CCCCCCCCCCCCCCCC(=O)N[C@@H](CCC(=O)NCCCC[C@H](NC(=O)[C@H](CO)NC(=O)[C@H](CCC(=O)O)NC(=O)[C@H](CC(C)C)NC(=O)[C@H](Cc1ccc(O)cc1)NC(=O)[C@H](CCCCN)NC(=O)[C@H](CO)NC(=O)[C@H](Cc1ccc(O)cc1)NC(=O)[C@H](CC(=O)O)NC(=O)[C@H](CO)NC(=O)[C@@H](NC(=O)[C@H](Cc1ccccc1)NC(=O)[C@@H](NC(=O)CNC(=O)[C@H](Cc1c[nH]cn1)NC(=O)C(C)(C)NC(=O)[C@@H](N)Cc1c[nH]cn1)[C@@H](C)O)[C@@H](C)O)C(=O)N[C@@H](C)C(=O)N[C@@H](C)C(=O)N[C@@H](CCC(=O)O)C(=O)N[C@@H](CCC(=O)O)C(=O)N[C@@H](Cc1ccccc1)C(=O)N[C@H](C(=O)N[C@@H](CCC(=O)O)C(=O)N[C@@H](Cc1c[nH]c2ccccc12)C(=O)N[C@@H](CC(C)C)C(=O)N[C@@H](CCC(=O)O)C(=O)N[C@@H](CO)C(=O)N[C@@H](C)C(=O)O)[C@@H](C)CC)C(=O)O) [Compound 17] | – | – | – | 0.89 | 0.18 | 0.23 | 4.6 | 0.05
9 | H-HSQGTFTSDYSKYLDEK([γGlu-Palmitoyl])AAHEFVEWLESA-NH2 (SMILES CCCCCCCCCCCCCCCC(=O)N[C@@H](CCC(=O)NCCCC[C@H](NC(=O)[C@H](CCC(=O)O)NC(=O)[C@H](CC(=O)O)NC(=O)[C@H](CC(C)C)NC(=O)[C@H](Cc1ccc(O)cc1)NC(=O)[C@H](CCCCN)NC(=O)[C@H](CO)NC(=O)[C@H](Cc1ccc(O)cc1)NC(=O)[C@H](CC(=O)O)NC(=O)[C@H](CO)NC(=O)[C@@H](NC(=O)[C@H](Cc1ccccc1)NC(=O)[C@@H](NC(=O)CNC(=O)[C@H](CCC(N)=O)NC(=O)[C@H](CO)NC(=O)[C@@H](N)Cc1c[nH]cn1)[C@@H](C)O)[C@@H](C)O)C(=O)N[C@@H](C)C(=O)N[C@@H](C)C(=O)N[C@@H](Cc1c[nH]cn1)C(=O)N[C@@H](CCC(=O)O)C(=O)N[C@@H](Cc1ccccc1)C(=O)N[C@H](C(=O)N[C@@H](CCC(=O)O)C(=O)N[C@@H](Cc1c[nH]c2ccccc12)C(=O)N[C@@H](CC(C)C)C(=O)N[C@@H](CCC(=O)O)C(=O)N[C@@H](CO)C(=O)N[C@@H](C)C(N)=O)C(C)C)C(=O)O) [Compound 10] | 0.23 | 1 | 0.23 | 0.33 | 0.04 | – | – | –
